This note sets out measurements from the DeepSol protein solubility set.

This data set can be described thus: soluble on expression in E. coli; label from the status in PepcDB or PDB records.
As for “QIVLTQSPAIMSASPGEKVTMTCSASSSVSYMHWYQQKSGTSPKIWIYESSKLASGVPVRFSGSGSGTSYSLTISSMEAEDVATYYCQQWSSHPHPLTFGAGTKLELKRADAAPTVSIFPPSSEQLTSGGASVVCFLNNFYPKDINVKWKIDGSERQNGVLNSWTDQDSKDSTYSMSSTLTLTKDEYERHNSYTCEATHKTSTSPIVKSFNRNEC”, the “soluble on expression in E. coli” value is reported as “soluble”. Regarding “QLLGATVVEHNPLYTAHELEGLFQDHGARVAIAWDKAASTLEKLRDTTSLETIISVNMTEAMPRIQQLALRIPIPPIAAKREQLTAFADNTVPWSTLIGNAIGGNGKRTEFPKVTKDDIALILYTSGTTGTPKGALLSHGNLVSNCFMGKAWVPGLGDQPER”, the “soluble on expression in E. coli” value is “not soluble”. “QLVIERVSLPNPGKEKMTQALLTYVRRQGLSSLNWTPAAESLLERIRCAVDWLPEQAWPMFDEASLLDSLDEWLEPYMTSVA”: the “soluble on expression in E. coli” value is given as “not soluble”. The entry for “QSTIKIVLIEDTKTLDEVVVIGYGTQKKSDVSGSVTSVSGDKLSKIPTANAEMALQGMAPGLSVNFGSGAAGSSATLQVRGVTSWKDDDGENSESNGPLVIIDGVPGNMSYLNPEDIKSISVLKDAATAAIYGSRSAAGVILIETHRGT” is “not soluble”; for “QTVLKPKVYVRARPKDMNGQGALLSGSVVDIGSGAIENRGGLIAGREALILNAQNIKNLQGDLQGKNIFAAAGSDITNTGSIGAEN” it is “not soluble”. With “QVAKNPAPQAVEQAQSSSSLPAPSFADELDPVPGQQQASAKTITVTTDVLTLSIDTVGGDVVHADLNQYSAELDSSDPFVLLKDTQGHQFIAQSGLVGPQGIDLSSSNRPHYNVSADSFTLADGQDELRVPMTFTANGIEYTKTYVLKRGSYALNVEYDVANNSGNNATFGMYAHLRQNLMDAGGSITMPTYRGGAYSTEDTRYKKYSFEDMQDRNLSINLADGQGWAAMIQHYFAAAWIPRNEPGTNLYTRVIGNLGDIGVRMPNKTIATGDQAKFEATLWVGPKLQQEMAAVAPNLDLVVDYGWLWFIAKPLHS”, the “soluble on expression in E. coli” value is listed as “not soluble”. Under “QVQLVESGGGSVQAGGSLRLSCTASGYTIGPYCMGWFRQAPGGEREAVAAINMGGGITYYADSVKGRFTISRDNAKNTVTLQMNSLKPEDTAMYYCAADSTIYASYYECGHGLSTGGYGYDSWGQGTQVTVSSRGRHHHHHH” stands “soluble”; under “QVQLVESGGNLVQPGGSLRLSCAASGFTFGSFSMSWVRQAPGGGLEWVAGLSARSSLTHYADSVKGRFTISRDNAKNSVYLQMNSLRVEDTAVYYCARRSYDSSGYWGHFYSYMDVWGQGTLVTVS”, “soluble”; under “QVSDEDVMLMIRQGAKKGVFESVEYEMISRIFRMSDKRASALMTPRNEIEWLDLERPDEELVARIKASGRSRFPVAKGSLDELQGVVRSLDLVNFSLSSKGSIREAIRASMKPPLFVPESVPAFHVLELFKKNRAHMALVIDEHGSVQGAITLTDVLESIVGDVPADDMEGD”, “not soluble”. Turning to “QYRPMSEKQFSRPVLIVPPQINKYYIFDLSPANSFVQYALKNGLSTFIISWRNPDIRHREWGLSSYVEAAEQAMNICRAISGAREVNLVGACAGGLTIAALLGHLQVKRQTRRVASATYMVSLLDSQIDSPATLFIDEQALEAAKRRSYQRGVLEGSEMSRVFSWMRPNDLIWTYWINNYLLGKSPPPFDILYWNNDTTRLPAALHGDLLDFFKHNPLSHAGGLEVCGTPIDLQKVTVDSFSVAGINDHITPWDSVYRSTLLLGGDRRFVLANSGHVQSILNP”, the “soluble on expression in E. coli” value is on record as “not soluble”. On to “RCGAGGYEALRGPLGAAGRRARQAWTIAPGSRRRGKAAAQSSVPGAGHAGGGAAPRRPAAAVRPGSPPLAGALTPRPSPLQGPFPGRLLAGPPPRFPGGTMTDTRRRVKVYTLNEDRQWDDRGTGHVSSGYVERLKGMSLLVRAESDGSLLLESKINPNTAYQKQQDTLIVWSEAENYDLALSFQEKAGCDEIWEKICQVQGKDPSVDITQDLVDESEEERFDDMSSPGLELPSCELSRLEEIAELVASSLPSPLRREKLALALENEGYIKKLLELFHVCEDLENIEGLHHLYEIIKGIFLLNRTALFEVMFSEECIMDVIGCLEYDPALSQPRKHREFLTKTAKFKEVIPISDPELKQKIHQTYRVQYIQDMVLPTPSVFEENMLSTLHSFIFFNKVEIVGMLQEDEKFLTDLFAQLTDEATDEEKRQELVNFLKEFCAFSQTLQPQNRDAFFKTLSNMGILPALEVILGMDDTQVRSAATDIFSYLVEYNPSMVREFVMQEAQQNDDDILLINLIIEHMICDTDPELGGAVQLMGLLRTLVDPENMLATANKTEKTEFLGFFYKHCMHVLTAPLLANTTEDKPSKDDFQTAQLLALVLELLTFCVEHHTYHIKNYIINKDILRRVLVLMASKHAFLALCALRFKRKIIGLKDEFYNRYIMKSFLFEPVVKAFLNNGSRYNLMNSAIIEMFEFIRVEDIKSLTAHVIENYWKALEDVDYVQTFKGLKLRFEQQRERQDNPKLDSMRSILRNHRYRRDARTLEDEEEMWFNTDEDDMEDGEAVVSPSDKTKNDDDIMDPISKFMERKKLKESEEKEVLLKTNLSGRQSPSFKLSLSSGTKTNLTSQSSTTNLPGSPGSPGSPGSPGSPGSVPKNTSQTAAITTKGGLVGLVDYPDDDEDDDEDEDKEDTLPLSKKAKFDS”, for which the “soluble on expression in E. coli” value is given as “soluble”. The entry for “RENFPGVSWDSLPDELLLGIFSCLCLPELLKVSGVCKRWYRLASDESLWQTLDEFRVQHMDLSNSVIEVSTLHGILSQCSKLQNLSLEGLRLSDPIVNTLAKNSNLVRLNLSGCSGFSEFALQTLLSSCSRLDELNLSWCFDFTEKHVQVAVAHVSETITQLNLSGYRKNLQKSDLSTLVRRCPNLVHLDLSDSVMLKNDCFQEFFQLNYLQHLSLSRCYDIIPETLLELGEIPTLKTLQVFGIVPDGTLQLLKEALPHLQINCSHFTTIAR” is “soluble”. The entry for “RIPVKYGNADGEYCKFPFLFNGKEYNSCTDTGRSDGFLWCSTTYNFEKDGKYGFCPHEALFTM” is “soluble”. Regarding “RKILDSKAIDLMNALMRLNQIRPGLQYKLLSQSGPVHAPVFTMSVDVDGTTYEASGPSKKTAKLHVAVKVLQAMGYPTGFDADI”, the “soluble on expression in E. coli” value is listed as “soluble”. Under “RLSDVLSADVYQQAHSPLSLALGVDIGGHPMVVDLAKMPHLLVAGTTGSGKSVGINAMILSILFKASPEQVRLIMVDPKMLELSVYDGIPHLLTPVVTDMKEAASALRWCVEEMERRYRLMAALGVRNLAGYNTKITEAAANGQPLLNPLWKPVDSMDETAPELQALPYVVVVIDELADMMMVVGKKVEQLIARIAQKARAAGIHMILATQRPSV” stands “not soluble”; under “RNAAHQLYYRPTPDDGYLLAGYPWFDVRARDLFVALPGCTLCVEAPERFERIVNTVIPAMERYMRLHEDDDTIHGLHEPDVGIWAIWAIQQYARRNGLEAAKRFGSFVSEVVSYYLSAQHPTAQIRENGLLYVLGTGFPLSWMDAKLNGKAVIPREGYLVELNALWYNALCFERELNGEKPEIGEIISRIERSFPDTFLNCYNYLFDYVQDGKAQDWSVRPNMLFAISLPYSPLQRDRQLQVLEIITRELLTPKGLRSLSPKSEGYRPYCRGKQEERELAYYNGSVWPWLLGQYTEAYLRLYGNSGVTFLERMLIGMEEELQMHGIGTISELFDGNPPFMGRGAISFAMSVGEILRAKELLNRTESDMHLSVRHMYNYTKWKG”, “not soluble”. As for “RNEHTGELRLGASTTIAQYVLPPLLARFIEKFPQVSLSLFSGNSSEVEKALQEHRIDLALVEGNTRQPNLKYTPFLQDELVAIVHTHSKWMDYDEITLDELKEVPLVLRERGSGTLDVLITALHKHNIKLSDLTIRMHLGSTESIK”, the “soluble on expression in E. coli” value was “not soluble”.

With “RPAEEIIQGQIEVTEYRVSSKVPGRIKELRVSEGQQVQAGDTLAVIEAPDVAAKMEQAKAAEAAAQAQNAKALKGARSEQIQAAYEMWQKAQAGVAIATKTHQRVQNLYDQGVVPAQKLDEATAQRDAAIATQKAAEAQYNMARNGAEREDKLAASALVDRARGAVAEVESYINETYLIAPRAGEVSEIFPKAGELVGTGAPIMNIAEMGDMWASFAVRED”, the “soluble on expression in E. coli” value is given as “not soluble”.

For “RPDPFPQNGLPAARLAMVAREMGHIAPFVRAVYAAQFGRGLVISDPQVLAECWAEAGLPPEAMEQAKSPEIKAALFAQGERAAALDLFGAPSFVVGEEVFWGDDRLDQALALAAQS”, the “soluble on expression in E. coli” value is reported as “not soluble”. The entry for “RSEMHEECSPDFTAQFHLAAEHTAHIFQHLPETEPDDFQTALDTLRGELDTLRTHSSGTQSHILLQQLQLIARQLEPYYRAYRQIPHRQPQNAA” is “not soluble”. The entry for “RTLGEVWKERLNQMTKEEFTRYRKEAIIEVDRSAAKHARKEGNVTGGHPVSRGTAKLRWLVERRFLEPVGKVIDLGCGRGGWCYYMATQKRVQEVRGYTKGGPGHEEPQLVQSYGWNIVTMKSGVDVFYRPSECCDTLLCDIGESSSSAEVEEHRTIRVLEMVEDWLHRGPREFCVKVLCPYMPKVIEKMELLQRRYGGGLVRNPLSRNSTHEMYWVSRASGNVVHSVNMTSQVLLGRMEKRTWKGPQYEEDVNLGSGTRAV” is “soluble”; for “RTVAQNASETTVSYDTDTAVLSEADVLRIALSENATVKVADMDVRKQEYARRAARADLFPKVDLNGVYSHTLKKQVLYIDMPGFSSSEGIEMGRTHNTQGGVNVSMPLVSAQLWKSIAMTGEQLDLALEKARSSRIDLVAEVKKAYLSVLLAEDSYGVFKRSYDNALANYKNISDKFDRGLVAEYDKIRANVQVRNIEPNLLQAQNSVALALWQLKVLMSMEVETPIRLSGSLSDYKEQVYTGYFAADTLISNNSSLRQLDIQRRLAVSADKLNKYSFLPTLNLGGQYTYSLNSNDIKFWGEGQR” it is “not soluble”. The entry for “RYLLRATTDDLYLVHDRQVAPFDGDLNDYYKWLTEQQKAERKEAQALQPVKDTANSAAAKKEQKRREAEFRKLTAPIRKTLTQLENKMDKLGVALAEAEEQLADNSLYEAENKAKLNEVLALQASSKSELEEVEMEWMSAQEELEQMELEFNQ” is “not soluble”. Regarding “RYRAHCDAIALCAPMFGIIIRLPDWMVRHILDWAEGHQRIREEYAIGTGRWRALPFAVNVLTHSRQRYRRNLRFYADEPRLQVGGPTWHWVREGMLAGDEVLANVEKDTAPTLLLQAEEERVVDNLMHDRYCELRAAAGHPCEGGKPLVIEGAYHEILFEKDAMRSVALNAIVEFFNRHT”, the “soluble on expression in E. coli” value is “not soluble”. Take “SAAAMAEQEGSKGSARNRGGVQRVEGKLRASVEKGDYYEAHQMYRTLFFRYMSQSKHIEARELMYSGALLFFSHSQQNSAADLSMLVLESLEKHEVKVTEELLENLAKLFSLMDPNSPERVAFVSRALKWSSGGSGKFGHQKLHQFLAITLWKEQNYYESRYHFLHSSDGEGCANMLVEYSSTRGYRSEVDMFVAQAVLQFLCLKNKTSASVVFTTYTQKHPSIERGPPFVQPLLNFIWFLLLAVEGGKLTVFTVLCEQYQPSLKRDPMYNEYLDRIGQLFFGLPPKQSSSYGGLLGNLLNSLMGSGEDDDVEDGQEDSSPIELD”: the “soluble on expression in E. coli” value is reported as “soluble”. “SAAARATTPADGEEPAPEAEALAAARERSSRFLSGLELVKQGAEARVFRGHFQGRAAVIKHRFPKGYRHPALEARLGRRRTVQEARALLRCRRAGISAPVVFFVDYASNCLYMEEIEGSVTVRDYIQSTMETEKTPQGLSNLAKTIGQVLARMHDEDLIHGDLTTSNMLLKPPLEQLNIVLIDFGLSFISALPEDKGVDLYVLEKAFLSTHPNTETVFEAFLKSYSTSSKKARPVLKKLDEVRLRGRKRSMVG”: the “soluble on expression in E. coli” value was “soluble”.
